Experimental data: US7696313B2, “Prodrug compounds with isoleucine” (priority 2000, dated 2010)
Several values for one entry are separate records, joined by “and”; a condition that tells them apart may be missing. Equal values may be shown once. Entries after “also recorded” stand apart in the source; their conditions may differ.

What was measured:
[1] = tested on: doxorubicin-resistant colorectal carcinoma LS174t; settings: tolerated dose under this dosing regimen; cited from earlier work
[2] = Metabolism and clearance in normal mice (plasma and urine, LC MS/MS); assay type: in vivo; settings: after Suc-βAla-Ile-Ala-Leu-Dox 117 mg/kg
[3] = tested on: doxorubicin-resistant colorectal carcinoma LS174t; assay: LS174t human colorectal carcinoma xenograft efficacy; assay type: in vivo, nude mice; settings: uncorrected
Protocol: (§1) In repeat-dose studies in tumor bearing mice, groups of ten mice were dosed with various amounts of prodrug for a total of five doses at either five day or 1 week intervals.

[4] = Metabolism and clearance in normal mice (plasma and urine, LC MS/MS); assay type: in vivo
Protocol: The metabolism and clearance of Suc-Ile-Ala-Leu-Dox was studied in normal mice. The mice were administered Suc-Ile-Ala-Leu-Dox at a single intravenous bolus dose of 117 mg/kg. Plasma samples were obtained at 1 and 4 hours. Plasma samples of 100 μl were transferred to Eppendorf tubes (1.5 mL) and an internal standard of daunorubicin (20 μL at 0.5 mg/ml) was added together with acetonitrile (400 μl). The tubes were capped and briefly vortexed followed by centrifugation at 14,000 rpm. 420 μl from each tube was removed and dried in vacuo. Each sample was reconstituted in 65 μl ammonium formate containing acetonitrile (20%) prior to analysis by reverse phase liquid chromatography in combination with tandem mass spectrometry (LC MS/MS).
Urine was collected at 2 and 24 hours post administration from pairs of mice in metabolic cages. Urine samples were diluted with ammonium formate containing acetonitrile (20%) to give a target analyte concentration within the practical range of the LC MS/MS assay. 30 μl of each diluted sample was placed in an Eppendorf tube (1.5 ml) and an internal standard of daunorubicin (20 μL at 0.5 mg/ml) was added together with 50 μl of ammonium formate containing acetonitrile (20%). Each sample was then analyzed by LC MS/MS.
An Agilent HP 1100. HPLC with DAD detector and Chemstation software was coupled to a PE Sciex API 365 mass spectrometer with an electrospray ion source.
HPLC was performed on a TSK-Gel Super ODS, […], 4.6×50 mm (TosoHaas) reversed phase column equipped with a […] C18 guard disc (Higgins Analytical) and stainless steel frit (Upchurch Scientific). Chromatography was performed at room temperature. The flow rate was 0.5 ml/min. Injection volume was 50 μl. Gradient elution was performed using a mobile phase of 20 mM ammonium formate with increasing amounts of acetonitrile. The API 365 was operated at 365° C. in a multiple reaction monitoring mode, set to monitor specific analyte parent-daughter ion pairs. Integration of chromatograms was performed by MacQuan software (PE Sciex) and quantitation of each analyte obtained by comparison to previously obtained calibration curves. Daunorubicin was used as an internal standard in all cases.
Percent of administered dose—plasma volume estimated at 40% of blood volume, which was calculated at 7% of animal's body weight.
Plasma samples were obtained at 1 and 4 hours from separate mice. Urine was collected at 2 and 24 hours post administration from pairs of mice in metabolic cages. The plasma and urine samples were prepared and analyzed as described in Example 4.

tumor bearing mice [5] = settings: repeat dosing, 5 doses; cited from earlier work
[6] = tested on: LNCaP, HT-29 and PC-3 cells; assay: 3H-thymidine proliferation assay, stated across the cell lines used; assay type: cell-based; settings: 48 hours, 3H-thymidine incorporation; read-out: IC50 of the positive control in the cell lines used
Protocol: (§2) Adherent cells, LNCaP (prostate carcinoma), HT-29 (colon carcinoma) and PC-3 (prostate carcinoma), were cultured in DMEM media containing 10% heat inactivated fetal calf serum (FCS). On the day of the study the cells were detached from the plate with a trypsin solution. The collected cells were washed and resuspended at a concentration of 0.25×10^6 cells/ml in DMEM containing 10% FCS. 100 μl of cell suspension were added to 96 well plates and the plates were incubated for 3 hours to allow the cells to adhere. […] The plates were then incubated for 24 hours, pulsed with 10 μl of a 100 μCi/ml ^3H-thymidine and incubated for an additional 24 hours (total incubation time 48 hours). The plates were harvested using a 96 well Harvester (Packard Instruments) and counted on a Packard Top Count Counter. Four parameter logistic curves were fitted to the ^3H-thymidine incorporation as a function of drug molarity using Prism software to determine IC50 values.
(§3) Prostate carcinoma cells, LNCaP and PC-3 cells or colon carcinoma cells HT-29, were incubated with increasing concentration of the indicated compounds for 48 hours and cellular proliferation was measured using the ^3H-thymidine assay.

[7] = for Major Plasma Metabolite, Table 7 / Major Plasma Metabolite, Table 8: mice
Protocol: (§9) Plasma was obtained from three individual animals in each group at 5 minutes, 1, 2, 4, or 6 hr.

normal mice = assay: Initial single dose Maximum Tolerated Dose (MTD) study, 28 days; assay type: in vivo; settings: for single dose MTD fold higher than doxorubicin alone, after post-analysis: about 75% active compound, versus doxorubicin […] mg/kg; for acute toxicity / single-dose MTD, doxorubicin equivalent: intravenous bolus; for acute toxicity: all dose levels tested; for single-dose MTD, doxorubicin equivalent: normal mice; for single-dose MTD fold higher than doxorubicin alone: versus doxorubicin 4 mg/kg
Protocol: (§4) In our initial single dose Maximum Tolerated Dose (MTD) study, groups of five normal mice were administered intravenous bolus doses of Suc-Ile-Ala-Leu-Dox. The mice were observed daily for 28 days and body weights measured twice weekly.
(§5) The mice were observed daily for 28 days and body weights measured twice weekly.
(§6) In the single dose Maximum Tolerated Dose (MTD) studies, groups of normal mice were administered intravenous bolus doses of the prodrug. The mice were observed daily for 28 days and body weights measured twice weekly. The MTD was estimated to be equal to the highest dose that produced no death in mice after 28 days.

[8] = as above; assay type: in vivo, mice; settings: mouse, in vivo
Protocol: as §4, §5, §6

normal ICR mice = assay: Second single dose Maximum Tolerated Dose (SD-MTD) study, 49 days; settings: for acute toxicity within 24 hours: any dose level; for SD-MTD (mg/kg Dox=): doxorubicin equivalent
Protocol: (§7) In a second single dose Maximum Tolerated Dose (SD-MTD) study, groups of five normal ICR mice were administered intravenously bolus doses of Suc-Ile-Ala-Leu-Dox. The mice were observed daily for 49 days and body weights measured twice weekly.
(§8) In a second single dose Maximum Tolerated Dose (SD-MTD) study, groups of five normal ICR mice were administered intravenous bolus doses of Suc-βAla-Ile-Ala-Leu-Dox. The mice were observed daily for 49 days and body weights measured twice weekly.

[9] = tested on: HT-29 (colon carcinoma) cells; settings: read-out: IC50 HT29; 48 hours, 3H-thymidine incorporation
Protocol: as §2, §3

[10] = tested on: LNCaP (prostate carcinoma) cells; settings: read-out: IC50 LNCaP; 48 hours, 3H-thymidine incorporation
Protocol: as §2, §3

[11] = tested on: PC-3 (prostate carcinoma) cells; settings: read-out: IC50 PC-3; 48 hours, 3H-thymidine incorporation
Protocol: as §2, §3

[12] = mouse, in vivo, iv, 100 umol/kg
Protocol: as §9

[13] = Second single dose Maximum Tolerated Dose (SD-MTD) study, 49 days; settings: mouse, in vivo, iv
Protocol: as §7, §8

tumor bearing mice [14] = assay: Repeat-dose tolerance (RD-MTD) in tumor bearing mice; assay type: in vivo
Protocol: as §1

[15] = as above; assay type: in vivo; settings: mouse, in vivo
Protocol: as §1

[16] = after Suc-Ile-Ala-Leu-Dox 117 mg/kg, collected 0-2 hours
[17] = after Suc-Ile-Ala-Leu-Dox 117 mg/kg, collected 2-24 hours
[18] = 28 days, uncorrected doses, read-out: SD MTD (mg/kg), Table 7
[19] = SD MTD, doxorubicin equivalent dose, Table 8, value in parentheses, corrected results
[20] = SD MTD, molar equivalent dose of doxorubicin, Table 7, value in parentheses, uncorrected
[21] = corrected results, read-out: SD MTD (mg/kg), Table 8

COc1cccc2c1C(=O)c1c(O)c3c(c(O)c1C2=O)C[C@@](O)(C(=O)CO)C[C@@H]3O[C@H]1C[C@H](N)[C@H](O)[C@H](C)O1 [Doxorubicin, reference compound]
efficacy of doxorubicin alone at its tolerated dose in LS174t model [1]: historically ineffective; also recorded: completely ineffective | Urine 2 hr, percent of administered dose ([2]; collected 0-2 hours): 0.21 % of administered dose | Urine 24 hr, percent of administered dose ([2]; collected 2-24 hours): 0.51 % of administered dose | Optimal Efficacy Repeat Dose (mg/kg) ([3]; five doses at five day or 1 week intervals, 60 days): 4 (4) mg/kg | Optimal Efficacy Repeat Dose, molar equivalent dose of doxorubicin ([3]; value in parentheses): 4 (4) mg/kg | Urine 2 hr, percent of administered dose [4, 16]: 0.06 % of administered dose | Urine 24 hr, percent of administered dose [4, 17]: 0.36 % of administered dose | Plasma 4 hr, percent of administered dose ([4]; mouse, in vivo, 4 h): 0.00 % of administered dose | tolerated repeat dose level of doxorubicin (standard safe RD efficacious dose) (tumor bearing mice [5]): 4 mg/kg and 3 mg/kg | IC50 [6]: 0.02 to 0.08 µM

CC[C@H](C)[C@H](NC(=O)CCC(=O)O)C(=O)N[C@@H](C)C(=O)N[C@@H](CC(C)C)C(=O)N[C@H]1C[C@H](O[C@H]2C[C@](O)(C(=O)CO)Cc3c(O)c4c(c(O)c32)C(=O)c2c(OC)cccc2C4=O)O[C@@H](C)[C@H]1O [Suc-Ile-Ala-Leu-Dox]
Major Plasma Metabolite, Table 7 [7]: Leu-Dox | Major Plasma Metabolite, Table 8 [7]: Leu-Dox | relative exposure to doxorubicin ([7]; tripeptide vs tetrapeptide counterpart, leucine vs isoleucine compounds): two fold decrease | single dose MTD fold higher than doxorubicin alone, after post-analysis (normal mice): at least 3.3 fold | mortalities (normal mice; doses up to 117 mg/kg, 28 days): no mortalities | acute toxicity (normal mice): no acute toxicity | single-dose MTD, doxorubicin equivalent (normal mice; 28 days): 66 mg of doxorubicin/kg and 70 mg of doxorubicin/kg | single-dose MTD fold higher than doxorubicin alone (normal mice): at least 16 fold | MTD [8, 18]: > 117 mg/kg | MTD [8, 19]: 56 mg/kg | MTD [8, 20]: > 70 mg/kg | MTD [8, 21]: 94 mg/kg | Urine 2 hr, percent of administered dose [4, 16]: 3.9 % of administered dose | Urine 24 hr, percent of administered dose [4, 17]: 15.0 % of administered dose | acute toxicity within 24 hours (normal ICR mice): no acute toxicity | SD-MTD (mg/kg Dox=) (normal ICR mice): 56 mg/kg Dox= and 58 mg/kg Dox= | IC50 [9]: 47 µM | IC50 [10]: 1.1 µM | IC50 [11]: 88 µM | AUC(0-t) [12]: 452 µM·h

CC[C@H](C)[C@H](NC(=O)CCNC(=O)CCC(=O)O)C(=O)N[C@@H](C)C(=O)N[C@@H](CC(C)C)C(=O)N[C@H]1C[C@H](O[C@H]2C[C@](O)(C(=O)CO)Cc3c(O)c4c(c(O)c32)C(=O)c2c(OC)cccc2C4=O)O[C@@H](C)[C@H]1O [Suc-βAla-Ile-Ala-Leu-Dox]
Major Plasma Metabolite, Table 7 [7]: Leu-Dox | Major Plasma Metabolite, Table 8 [7]: Leu-Dox | morbidity (normal mice; 75 mg/kg dose group): no morbidity | animals euthanized due to treatment-related toxicity (normal mice; 100 mg/kg dose group, Day 21, groups of five): two | animals euthanized due to treatment-related toxicity (normal mice; 125 mg/kg dose group, Day 14, groups of five): four | single dose MTD fold higher than doxorubicin alone, after post-analysis (normal mice): approximately 3.7 fold | acute toxicity (normal mice): No acute toxicity | single-dose MTD, doxorubicin equivalent (normal mice; 28 days): 40 mg of doxorubicin/kg | single-dose MTD fold higher than doxorubicin alone (normal mice): approximately 10 fold | MTD [8, 18]: 75 mg/kg | MTD [8, 19]: 42 mg/kg | MTD [8, 20]: 42 mg/kg | MTD [8, 21]: 75 mg/kg | MTD ([8]; iv, intravenous bolus, normal mice, 28 days, read-out: single-dose Maximum Tolerated Dose (MTD)): 75 mg/kg | Urine 2 hr, percent of administered dose ([4]; mouse, in vivo): 12.7 % of administered dose | Urine 24 hr, percent of administered dose ([4]; mouse, in vivo): 4.81 % of administered dose | morbidity or mortality (normal ICR mice; 75 mg/kg dose group): no morbidity or mortality | animals euthanized due to weight loss or paralysis (normal ICR mice; 100 mg/kg dose, by Day 21, groups of five): three | acute toxicity within 24 hours (normal ICR mice): no acute toxicity | SD-MTD (mg/kg Dox=) (normal ICR mice): 42 mg/kg Dox= | SD-MTD Molar Ratio (Dox=) (normal ICR mice; fold higher on a molar basis than SD-MTD of doxorubicin): 2.6 | MTD [13]: 75 mg/kg | RD-MTD, doxorubicin equivalent per dose (tumor bearing mice [14]; Q7Dx5 as printed): 30 mg/kg doxorubicin equivalent | RD-MTD as total exposure (tumor bearing mice [14]; after 5 doses (Q5DX5)): approximately 150 mg/kg doxorubicin equivalent | treated animals terminated due to signs of toxicity (tumor bearing mice [14]; high dose group (68 mg/kg, Q5DX5), groups of ten): Two | RD-MTD fold higher than RD-MTD / tolerated repeat dose level of doxorubicin (tumor bearing mice [14]; versus doxorubicin 4 mg/kg): at least 6.5 fold | MTD ([15]; Q7Dx5 as printed, based on efficacy study in Example 8, read-out: RD-MTD (repeat-dose MTD)): ~53 mg/kg | MTD ([15]; Repeat Dose MTD, doxorubicin equivalent dose, Table 8, value in parentheses, corrected results): 30 mg/kg | MTD ([15]; corrected results, Q 5D × 5 or Q 7D × 5, read-out: Repeat Dose MTD (mg/kg), Table 8): 53 mg/kg | IC50 [9]: 38 µM | IC50 [10]: 0.19 µM | IC50 [11]: 57 µM | AUC(0-t) [12]: 326 µM·h
